Data taken from the supplement of paper PMC12764529.
± gives the half width of the 95% confidence interval.

Assays:
[1] = folding stability dG unfold from trypsin proteolysis; higher = more stable
How it was run: (§1)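 Designed mini-proteins (under 80 residues, no cysteine) in a PA-tagged cDNA display construct were digested with trypsin and chymotrypsin. Each protease was used at 11 concentrations (threefold dilutions) plus a no-protease condition, followed by sequencing. K50 was inferred by Bayesian fitting of sequencing counts, and unfolding free energy was derived against a sequence-predicted unfolded-state K50 and a shared folded-state K50, per protease or combined. Only designs with AlphaFold2 dimer inter-PAE above 15 were kept.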

[2] = folding stability dG unfold from chymotrypsin proteolysis; higher = more stable
How it was run: as §1

[3] = folding stability dG unfold (combined trypsin and chymotrypsin); higher = more stable
How it was run: as §1

| Sequence | folding stability dG unfold [1] | folding stability dG unfold [2] | folding stability dG unfold [3] |
| --- | --- | --- | --- |
| SALRPDIPFDAVEKVVIPARHPLLGGVVEAGVYRLKDSDAVLVVVTFPDGSKLVFLVRPDDVLDVLDAISAG [r14_240_TrMRF] | 2.38 ± 0.066 kcal/mol | 2.969 ± 0.01 kcal/mol | 2.75 ± 0.045 kcal/mol |
| SAGGSAGGSAGMKTLKIASISTSTSPTNTTLTTVTITSEGVTTTVTFPPGTTLEEVLEQLSAGGSAGGSAGG [r11_1056_JUSTAS] | 0.53 ± 0.049 kcal/mol | 0.678 ± 0.11 kcal/mol | 0.685 ± 0.1 kcal/mol |
| SAGGSAGGSKTIEIVVPPNTTPEEIAKKLKELFPDAKITSVEVYVDKKTKKIVYVKVKIEVKPSAGGSAGGS [r12_822_TrROS_Hall] | 2.68 ± 0.1 kcal/mol | 3.82 ± 0.057 kcal/mol | 3.46 ± 0.087 kcal/mol |
| SAGGSAGGSAGTVIRVRDKNGKIVEISLEEAAELLGIPPSELTLEDIVKAFAEKVDSIEILSSAGGSAGGSA [r18_403_TrMRF] | 3.6 ± 0.1 kcal/mol | 2.3 ± 0.038 kcal/mol | 2.91 ± 0.064 kcal/mol |
| SAGMTIVIGAPPELSLEEAVEKAIEAVEALFPDKLKPGSKIKVIVRVYDPETGSVDEVTVEIDVPPGALSAG [r5_916_TrMRF] | 3.35 ± 0.22 kcal/mol | 1.99 ± 0.11 kcal/mol | 2.65 ± 0.1 kcal/mol |
| SAAPVRVEVEYDPERGVLRVRLYIPATSPEEARELVERFFAALGAEARITENPETGTFVVEVDIRLPPASAG [r14_424_TrMRF] | 4.09 ± 0.09 kcal/mol | 5.15 ± 0.056 kcal/mol | 4.92 ± 0.074 kcal/mol |
| SAGGKKVIITKVETNKNGKKTYTVTLYYKDKKTNEWKKVAEFTFESKEEAENAAKELAKKLNLKIIPSAGGS [r16_512_TrROS_Hall] | 3.08 ± 0.087 kcal/mol | 5 ± 0.088 kcal/mol | 4.77 ± 0.11 kcal/mol |
| SAGGSAGGSAKVTYTENSVTIHAKVPEKPLKIEIPNTGKVVTIDLDKEVTVTFPVPKPPDESAGGSAGGSAG [r3_185_TrMRF] | -0.786 ± 0.07 kcal/mol | -0.454 ± 0.1 kcal/mol | -0.624 ± 0.17 kcal/mol |
| SAGGSAGGSAGGSGMTPIPLEVLERKVTEYDPKNGKITVEALAILPDGTPVKLKFTVELSAGGSAGGSAGGS [r4_184_JUSTAS] | 1.11 ± 0.042 kcal/mol | 1.37 ± 0.18 kcal/mol | 1.37 ± 0.22 kcal/mol |
| SKKKVTIEIEIVVRVPEGDELKNMTAEELAALLAEELGVEVEIVEVELVEYDEETGEYYVRIKVKITFPESA [r9_107_TrROS_Hall] | 2.95 ± 0.17 kcal/mol | 2.83 ± 0.13 kcal/mol | 2.76 ± 0.14 kcal/mol |
| SGPIAELVKAHPGVPVEDLAKAIVDALKAQLPKDVPITVDAEVTPDGIKLNVTVEGDTEPFTFPFVVKPGSA [r9_805_TrMRF] | 0.879 ± 0.024 kcal/mol | 1.34 ± 0.038 kcal/mol | 1.2 ± 0.043 kcal/mol |
| SAPSPKTPETLVFLSEEESEVVEERLSPSGKPFLVKRKRRFLRYRYVDEDGNVTSVGEREEPVEEELVLSAG [r14_934_JUSTAS] | 0.985 ± 0.094 kcal/mol | 0.231 ± 0.13 kcal/mol | 0.672 ± 0.087 kcal/mol |
| SAGGSAGGSAGMKIEKNKDGKLRIIIYNKNGKKVKEIEMSVEEAKKLAEKNNFEIVKIEPSAGGSAGGSAGG [r11_521_TrROS_Hall] | 1.02 ± 0.093 kcal/mol | 0.966 ± 0.41 kcal/mol | 1.09 ± 0.21 kcal/mol |
| SAGRKIEIHVPYDELRELFGPGQTAEDLADWIAQEGYQIEDIEVEPEPNPNNGKKYYRVTFEVKPPKKSAGG [r19_376_TrROS] | 0.345 ± 0.054 kcal/mol | 1.28 ± 0.12 kcal/mol | 0.95 ± 0.11 kcal/mol |
| SAMTTTETFEEGDYVYTVITTKIPSSLPPDSVVTIPVTTPLGAESEVVSEPGGTITVKVRLKKEDPELLSAG [r14_754_JUSTAS] | -1.57 ± 0.3 kcal/mol | 0.14 ± 0.088 kcal/mol | -0.176 ± 0.13 kcal/mol |
| SAGGEKIKLKVVIKVPKELKNLSKEEIEELLKKKLGPNYKITKVEIKVEKNENGEEYLVVEVEIEKESAGGS [r16_408_TrROS_Hall] | 3.64 ± 0.21 kcal/mol | 3.37 ± 0.13 kcal/mol | 3.58 ± 0.23 kcal/mol |

| Sequence | folding stability dG unfold [1] | folding stability dG unfold [2] | folding stability dG unfold [3] |
| --- | --- | --- | --- |
| SAGGSAGGSAGGMKVIPFESLEEAREYIKANPDENVLLEFPDALLELTKPDDIKKIEKKPSAGGSAGGSAGG [r7_532_JUSTAS] | -0.0919 ± 0.12 kcal/mol | 0.36 ± 0.12 kcal/mol | 0.28 ± 0.084 kcal/mol |
| SAGGSAGLTLTFGDKEITLTPNPDTDTFTGTYPDGKPFTFKLTDDELYITYPDGTKEKIPLKDIKNSAGGSA [r15_448_TrMRF] | 1.58 ± 0.066 kcal/mol | 1.42 ± 0.17 kcal/mol | 1.54 ± 0.21 kcal/mol |
| SAGGSAGGSAMKIVKIEVVENEDGEKYVKIEIELENGEKIEITLPLEELENMSLEELLKLLKSAGGSAGGSA [r18_129_TrROS_Hall] | 2.94 ± 0.18 kcal/mol | 3.94 ± 0.17 kcal/mol | 3.68 ± 0.12 kcal/mol |
| SAGGWQKVEFMIEIPGGGSLDQAKDEVEEFADYLRKKAGFKDVDVDVQVDPDGWVYVMVEIEVPPNASAGGS [r8_3_TrROS] | 1.06 ± 0.04 kcal/mol | 2.24 ± 0.042 kcal/mol | 1.87 ± 0.062 kcal/mol |
| SAEEPEVVRLEIRITVVERDEDGRLREREVTLEVEVLPDGRVVIRVDGRVFVIDLETGELVEVLEDVEPSAG [r14_821_TrROS_Hall] | 3.77 ± 0.099 kcal/mol | 4.14 ± 0.081 kcal/mol | 4.02 ± 0.089 kcal/mol |
| SAGGNTIMIPMDPPQAREFAKNFIGEFLDQAEENPDRPIEIMVPGPEGRYITIRVDPKEGNLEIEVVPSAGG [r13_216_TrROS] | 0.231 ± 0.057 kcal/mol | -0.125 ± 0.17 kcal/mol | 0.125 ± 0.089 kcal/mol |
| SAGGSMPTLKPDEILTLSSTTEPLPSGGLRGRTVTLKKIPGTGKFVTITKYSYQPPDGPITSATEILLSAGG [r13_263_JUSTAS] | -0.538 ± 0.48 kcal/mol | 0.585 ± 0.26 kcal/mol | 0.238 ± 0.15 kcal/mol |
| SAGGSAGGSAGGGMTVEESVFLDPSGTRITVTTRVFDDGTVVTETEVTPLPPTPNPALASAGGSAGGSAGGS [r10_878_JUSTAS] | 1.2 ± 0.035 kcal/mol | 1.08 ± 0.066 kcal/mol | 1.11 ± 0.15 kcal/mol |
| SIKELAKELPGFQVSVEPDDPGQVKITIMVPDDPQQQKRFQNKIIELANDIQGEHGMPVTIEIQPVPPGDSA [r9_1099_TrROS] | -0.238 ± 0.056 kcal/mol | 0.0536 ± 0.096 kcal/mol | -0.00283 ± 0.081 kcal/mol |
| SMIVTEEVSYDPSTNTRTITKTVYEKDENGNLVPVETEVVVEPVEEPPPYVPVIKVPPSNKTPEDRVKVLSA [r9_888_JUSTAS] | -0.035 ± 0.23 kcal/mol | 1.02 ± 0.27 kcal/mol | 0.781 ± 0.35 kcal/mol |
| KTKTIVINAKDLTEEQLRELLKKLGVSEEDVEVSEDGKTVVIKIDGVTIVIVASPPKPVVKPDDPEAKKAAS [r1_57_TrROS_Hall] | 1.27 ± 0.051 kcal/mol | 1.75 ± 0.085 kcal/mol | 1.61 ± 0.12 kcal/mol |
| SPQNLVRIAEIKVELKLDGKKYIITIEVYRPPDSDEVIVRVKVIDPSSDKSSPELEKIAKELEKKIEEELKS [r1_229_JUSTAS] | 2.53 ± 0.19 kcal/mol | 4.09 ± 0.1 kcal/mol | 3.54 ± 0.18 kcal/mol |
| SAKKKYIAKVLIEKGDKIIEIEIPGDATVKNPDGKEYTFKVESPEKLKEAIKKLFPEKYPAKILEVKEESAG [r14_41_TrMRF] | 1.18 ± 0.058 kcal/mol | 1.73 ± 0.087 kcal/mol | 1.54 ± 0.18 kcal/mol |
| SAGGSAGGSAGKIKIEKDKNGNYRVILKNGKVYEFKSIEEAKEELKKKFPNIKEIEIVKTSAGGSAGGSAGG [r11_806_TrROS_Hall] | 3.21 ± 0.18 kcal/mol | 4.29 ± 0.29 kcal/mol | 3.87 ± 0.3 kcal/mol |
| SAGGSAGGSAGGLDLSVPGLTSVTPVLLEDPRGYVTTVYTTTYPDGTVLTHTTVLPASLLSAGGSAGGSAGG [r7_214_JUSTAS] | 1.09 ± 0.025 kcal/mol | 1.16 ± 0.031 kcal/mol | 1.16 ± 0.024 kcal/mol |
